Measured values as given in patent US20230226223A1 (SOLA BIOSCIENCES, published 2023).
Positions count from the first letter of the chain named. Names may count otherwise. Read-outs that look alike come from different tables or passages of the source.

Legend:
Assay in all cases: cell-based or functional assay
[1] = molecular target: GFP-HTTQ74 reporter construct
[2] = molecular target: GFP-HTTQ74 reporter construct; remark: listed apart in the source
[3] = molecular target: GFP-HTTQ74 reporter construct; remark: listed apart in the source
[4] = molecular target: GFP-HTTQ74 reporter construct; remark: listed apart in the source

B1: Construct 8, JB1(P33Q)-2XQBP1 (designed binder)
chain: MGKDYYQTLGLARGASDEEIKRAYRRQALRYHQDKNKEPGAEEKFKEIAEAYDVLSDPRKREIFDRYGEEGLKGSDIGGGGSGGGGSGGGGSGGGGSAAASNWKWWPGIFDGLESNWKWWPGIFD
% Aggregation (relative to Q74 alone), filter trap assay [1]: 93%

B2: Construct 48, JB1-QBP1-QBP1 (15) (designed binder)
chain: MGKDYYQTLGLARGASDEEIKRAYRRQALRYHPDKNKEPGAEEKFKEIAEAYDVLSDPRKREIFDRYGEEGLKGSEAAAKSNWKWWPGIFDEAAAKEAAAKSNWKWWPGIFDLE
Reduction of Aggregation (%), filter trap assay [2]: 100%

B3: Construct 56, JB1-JB1-QBP1 (designed binder)
chain: MGKDYYQTLGLARGASDEEIKRAYRRQALRYHPDKNKEPGAEEKFKEIAEAYDVLSDPRKREIFDRYGEEGLKGSGSEFMGKDYYQTLGLARGASDEEIKRAYRRQALRYHPDKNKEPGAEEKFKEIAEAYDVLSDPRKREIFDRYGEEGLKGSGGGGSGGGGSGGGGSGGGGSAAASNWKWWPGIFDLESRGDYKDDDDK
Reduction of Aggregation (%), filter trap assay [2]: 68.5%

B4: Construct 41, JB1-QBP1-QBP1 (8) (designed binder)
chain: MGKDYYQTLGLARGASDEEIKRAYRRQALRYHPDKNKEPGAEEKFKEIAEAYDVLSDPRKREIFDRYGEEGLKGSEAAAKSNWKWWPGIFDEAAAKSNWKWWPGIFD
Reduction of Aggregation (%), filter trap assay [2]: 91.1%

B5: Construct 42, JB1-QBP1-QBP1 (9) (designed binder)
chain: B4 chain with E92G, A93G, A94G, A95G, K96S
Reduction of Aggregation (%), filter trap assay [2]: 87%

B6: Construct 6, QBP1-JB1-QBP1 (designed binder)
chain: MGKPIPNPLLGLDSTGTGSSNWKWWPGIFDEFMGKDYYQTLGLARGASDEEIKRAYRRQALRYHPDKNKEPGAEEKFKEIAEAYDVLSDPRKREIFDRYGEEGLKGSDIGGGGSGGGGSGGGGSGGGGSAAASNWKWWPGIFDGLE
% Aggregation (relative to Q74 alone), filter trap assay [3]: 5.62%

B7: Construct 9, JB1(20-31)-2XQBP1 (designed binder)
chain: MGTGSEFIKRAYRRQALRYDIGGGGSGGGGSGGGGSGGGGSAAASNWKWWPGIFDGLESNWKWWPGIFD
% Aggregation (relative to Q74 alone), filter trap assay [1]: 91%

B8: Construct 7, QBP1-JB1-2XQBP1 (designed binder)
chain: MGKPIPNPLLGLDSTGTGSSNWKWWPGIFDEFMGKDYYQTLGLARGASDEEIKRAYRRQALRYHPDKNKEPGAEEKFKEIAEAYDVLSDPRKREIFDRYGEEGLKGSDIGGGGSGGGGSGGGGSGGGGSAAASNWKWWPGIFDGLESNWKWWPGIFD
% Aggregation (relative to Q74 alone), filter trap assay [3]: 23%

B9: Construct 57, JB1-QBP1-JB1-QBP1 (designed binder)
chain: MGKDYYQTLGLARGASDEEIKRAYRRQALRYHPDKNKEPGAEEKFKEIAEAYDVLSDPRKREIFDRYGEEGLKGSGSSNWKWWPGIFDEFMGKDYYQTLGLARGASDEEIKRAYRRQALRYHPDKNKEPGAEEKFKEIAEAYDVLSDPRKREIFDRYGEEGLKGSGGGGSGGGGSGGGGSGGGGSAAASNWKWWPGIFDLESRGDYKDDDDK
Reduction of Aggregation (%), filter trap assay [2]: 94.1%

B10: Construct 1, JB1 (other)
chain: MGKDYYQTLGLARGASDEEIKRAYRRQALRYHPDKNKEPGAEEKFKEIAEAYDVLSDPRKREIFDRYGEEGLKGSDIAAALESRDYKDDDDK
% Aggregation (relative to Q74 alone), filter trap assay [3]: 127%

B11: Construct 12, JB1(1-57)-2XQBP1 (designed binder)
chain: MGKDYYQTLGLARGASDEEIKRAYRRQALRYHPDKNKEPGAEEKFKEIAEAYDVLSDDIGGGGSGGGGSGGGGSGGGGSAAASNWKWWPGIFDGLESNWKWWPGIFD
% Aggregation (relative to Q74 alone), filter trap assay [1]: 40.3%

B12: Construct 61, JC7-QBP1-QBP1 (designed binder)
chain: MDYYKILGVDKNASEDEIKKAYRKRALMHHPDRHSGASAEVQKEEEKKFKEVGEAFTILSDPKKKTRYDSGQDIGGGGSGGGGSGGGGSAAASNWKWWPGIFDLEGDYKDDDDKGSRAAASNWKWWPGIFDLE
Reduction (%) of protein aggregation [4]: 89%

B13: Construct 55, QBP1-JB1-QBP1 (2) (designed binder)
chain: MSNWKWWPGIFDLEGKDYYQTLGLARGASDEEIKRAYRRQALRYHPDKNKEPGAEEKFKEIAEAYDVLSDPRKREIFDRYGEEGLKGSGGGSSNWKWWPGIFDLE
Reduction of Aggregation (%), filter trap assay [2]: 9.45%

B14: Construct 45, JB1-QBP1-QBP1 (12) (designed binder)
chain: MGKDYYQTLGLARGASDEEIKRAYRRQALRYHPDKNKEPGAEEKFKEIAEAYDVLSDPRKREIFDRYGEEGLKGSGGGGSSNWKWWPGIFDGGGGSGGGGSSNWKWWPGIFDLE
Reduction of Aggregation (%), filter trap assay [2]: 91.1%

B15: Construct 47, JB1-QBP1-QBP1 (14) (designed binder)
chain: B14 chain with G76E, G77A, G78A, G79A, S80K
Reduction of Aggregation (%), filter trap assay [2]: 99.7%

B16: Construct 46, JB1-QBP1-QBP1 (13) (designed binder)
chain: B2 chain with E76G, A77G, A78G, A79G, K80S
Reduction of Aggregation (%), filter trap assay [2]: 100%

B17: Construct 59, JB13-QBP1-QBP1 (designed binder)
chain: MGQDYYSVLGITRNSEDAQIKQAYRRLALKHHPLKSNEPSSAEIFRQIAEAYDVLSDPMKRGIYDKFGEEGLKGGDIGGGGSGGGGSGGGGSAAASNWKWWPGIFDLEGDYKDDDDKGSRAAASNWKWWPGIFDLE
Reduction (%) of protein aggregation [4]: -27%

B18: Construct 53, Flag-QBP1-JB1-QBP1-Flag (designed binder)
chain: MDYKDDDDKGGTGSSNWKWWPGIFDEFMGKDYYQTLGLARGASDEEIKRAYRRQALRYHPDKNKEPGAEEKFKEIAEAYDVLSDPRKREIFDRYGEEGLKGSGGGGSGGGGSGGGGSGGGGSAAASNWKWWPGIFDLESRGDYKDDDDK
Reduction of Aggregation (%), filter trap assay [2]: 79.9%

B19: Construct 14, JB1(1-108)-2XQBP1 (designed binder)
chain: MGKDYYQTLGLARGASDEEIKRAYRRQALRYHPDKNKEPGAEEKFKEIAEAYDVLSDPRKREIFDRYGEEGLKGSGPSGGSGGGANGTSFSYTFHGDPHAMFAEFFGGDIGGGGSGGGGSGGGGSGGGGSAAASNWKWWPGIFDGLESNWKWWPGIFD
% Aggregation (relative to Q74 alone), filter trap assay [1]: 32%

B20: Construct 35, JB1-QBP1-QBP1 (2) (designed binder)
chain: MGKDYYQTLGLARGASDEEIKRAYRRQALRYHPDKNKEPGAEEKFKEIAEAYDVLSDPRKREIFDRYGEEGLKGSSNWKWWPGIFDEAAAKSNWKWWPGIFDLE
Reduction of Aggregation (%), filter trap assay [2]: 97.9%

B21: Construct 36, JB1-QBP1-QBP1 (3) (designed binder)
chain: B20 chain with E87G, A88G, A89G, A90G, K91S
Reduction of Aggregation (%), filter trap assay [2]: 95.7%

B22: Construct 5, JB1-3XQBP1 (designed binder)
chain: MGKDYYQTLGLARGASDEEIKRAYRRQALRYHPDKNKEPGAEEKFKEIAEAYDVLSDPRKREIFDRYGEEGLKGSGGGGSGGGGSGGGGSGGGGSGSSNWKWWPGIAAASNWKWWPGILESNWKWWPGIFD
% Aggregation (relative to Q74 alone), filter trap assay [3]: 41.1%

B23: Construct 54, QBP1-JB1-QBP1 (1) (designed binder)
chain: MSNWKWWPGIFDGKDYYQTLGLARGASDEEIKRAYRRQALRYHPDKNKEPGAEEKFKEIAEAYDVLSDPRKREIFDRYGEEGLKGSSNWKWWPGIFDGDYKDDDDK
Reduction of Aggregation (%), filter trap assay [2]: 0%

B24: Construct 43, JB1-QBP1-QBP1 (10) (designed binder)
chain: MGKDYYQTLGLARGASDEEIKRAYRRQALRYHPDKNKEPGAEEKFKEIAEAYDVLSDPRKREIFDRYGEEGLKGSSNWKWWPGIFDGGGGSGGGGSSNWKWWPGIFDLE
Reduction of Aggregation (%), filter trap assay [2]: 99.5%

B25: Construct 44, JB1-QBP1-QBP1 (11) (designed binder)
chain: B24 chain with G87E, G88A, G89A, G90A, S91K, G92E, G93A, G94A, G95A, S96K
Reduction of Aggregation (%), filter trap assay [2]: 99.6%

B26: Construct 3, QBP1-JB1 (designed binder)
chain: MGKPIPNPLLGLDSTGTGSSNWKWWPGIFDEFMGKDYYQTLGLARGASDEEIKRAYRRQALRYHPDKNKEPGAEEKFKEIAEAYDVLSDPRKREIFDRYGEEGLKGSDIAAALE
% Aggregation (relative to Q74 alone), filter trap assay [3]: 67.5%

B27: Construct 10, JB1(19-43)-2XQBP1 (designed binder)
chain: MGTGSEFEIKRAYRRQALRYHPDKNKEPGAEEDIGGGGSGGGGSGGGGSGGGGSAAASNWKWWPGIFDGLESNWKWWPGIFD
% Aggregation (relative to Q74 alone), filter trap assay [1]: 91%

B28: Construct 49, JB1-QBP1-QBP1 (16) (designed binder)
chain: MGKDYYQTLGLARGASDEEIKRAYRRQALRYHPDKNKEPGAEEKFKEIAEAYDVLSDPRKREIFDRYGEEGLKGSGGGGSGGGGSGGGGSGGGGSAAASNWKWWPGIFDLEGGGGSSRAAASNWKWWPGIFDLE
Reduction of Aggregation (%), filter trap assay [2]: 82.5%

B29: Construct 50, JB1-QBP1-QBP1 (17) (designed binder)
chain: B28 chain with G112E, G113A, G114A, G115A, S116K
Reduction of Aggregation (%), filter trap assay [2]: 90.9%

B30: Construct 2, JB1-QBP1 (designed binder)
chain: MGKDYYQTLGLARGASDEEIKRAYRRQALRYHPDKNKEPGAEEKFKEIAEAYDVLSDPRKREIFDRYGEEGLKGSDIGGGGSGGGGSGGGGSGGGGSAAASNWKWWPGIFDGLE
% Aggregation (relative to Q74 alone), filter trap assay [3]: 75.9%

B31: Construct 51, JB1-QBP1-QBP1 (18) (designed binder)
chain: MGKDYYQTLGLARGASDEEIKRAYRRQALRYHPDKNKEPGAEEKFKEIAEAYDVLSDPRKREIFDRYGEEGLKGSEAAAKSNWKWWPGIFDLEGGGGSSNWKWWPGIFDLE
Reduction of Aggregation (%), filter trap assay [2]: 96.5%

B32: Construct 52, JB1-QBP1-QBP1 (19) (designed binder)
chain: B31 chain with E76G, A77G, A78G, A79G, K80S
Reduction of Aggregation (%), filter trap assay [2]: 96.9%

B33: Construct 37, JB1-QBP1-QBP1 (4) (designed binder)
chain: MGKDYYQTLGLARGASDEEIKRAYRRQALRYHPDKNKEPGAEEKFKEIAEAYDVLSDPRKREIFDRYGEEGLKGSGGGGSSNWKWWPGIFDEAAAKSNWKWWPGIFDLE
Reduction of Aggregation (%), filter trap assay [2]: 97%

B34: Construct 38, JB1-QBP1-QBP1 (5) (designed binder)
chain: B33 chain with E92G, A93G, A94G, A95G, K96S
Reduction of Aggregation (%), filter trap assay [2]: 96.9%

B35: Construct 40, JB1-QBP1-QBP1 (7) (designed binder)
chain: B33 chain with G76E, G77A, G78A, G79A, S80K, E92G, A93G, A94G, A95G, K96S
Reduction of Aggregation (%), filter trap assay [2]: 96%

B36: Construct 39, JB1-QBP1-QBP1 (6) (designed binder)
chain: B33 chain with G76E, G77A, G78A, G79A, S80K
Reduction of Aggregation (%), filter trap assay [2]: 98.1%
